Changes are numbered by the printed parent chain. Names and notes keep the numbering of the source. Non-standard residues stand in square brackets, D forms with d. No end group written: not given here. pS = N[C@@H](COP(=O)(O)O)C(=O)O

Sequences and labels used below:
T1: pT212/pS214GC (69AXY) (human, phosphothreonine 212 and phosphoserine 214 of tau, printed GCGSPGTPGSRSR(pT)P(pS)LPTPPTREPK)
T1 construct: also called T-pT212pS214GC
T1 peptide: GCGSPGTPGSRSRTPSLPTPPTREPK

T2: pS396/400/404GC (84AWK) (human, phosphoserines at 396, 400 and 404 of tau, printed GCRENAKAKTDHGAEIVYK(pS)PVV(pS)GDT(pS)PRHL)
T2 construct: also called T-pS396/400/404GC
T2 peptide: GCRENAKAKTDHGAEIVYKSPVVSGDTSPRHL

T3: pSer412Cys (74AXY) (human)
T3 peptide: NV[pS]STGSC

B1: V8-AFM-hIgG1-LALA (antibody)
heavy: not shown
light: DIVMTQSPLSLPVTLGEPASISCRSSQKIVHRNANTYLEWYLQKPGQSPQLLIYTVSNRFSGVPDRFSGSGSGTDFTLKISRVEAEDLGVYYCFQGSYLPLTFGGGTKVEIKRTVAAPSVFIFPPSDEQLKSGTASVVCLLNNFYPREAKVQWKVDNALQSGNSQESVTEQDSKDSTYSLSSTLTLSKADYEKHKVYACEVTHQGLSSPVTKSFNRGEC
notes: Human IgG1 L234A L235A/kappa; also called V8-AFM-IgG1-LALA
B2: V8-AFM-hIgG4-S228P (antibody)
heavy: not shown
light: B1 light
notes: also called V8-AFM-IgG4-S228P
B3: V8-AFM-hIgG1-LALA-YTE (antibody)
heavy: EVQLVESGGGLVQPGGSLRLSCAASGFTFSSFALNWVRQAPGKGLEWVGHIRSETNNYVTFYAASVKGRFTVSRDDSQNTAYLQMNSLKTEDTATYYCVRRGPRDSWFGYWGQGTLVTVSSASTKGPSVFPLAPSSKSTSGGTAALGCLVKDYFPEPVTVSWNSGALTSGVHTFPAVLQSSGLYSLSSVVTVPSSSLGTQTYICNVNHKPSNTKVDKKVEPKSCDKTHTCPPCPAPEAAGGPSVFLFPPKPKDTLYITREPEVTCVVVDVSHEDPEVKFNWYVDGVEVHNAKTKPREEQYNSTYRVVSVLTVLHQDWLNGKEYKCKVSNKALPAPIEKTISKAKGQPREPQVYTLPPSRDELTKNQVSLTCLVKGFYPSDIAVEWESNGQPENNYKTTPPVLDSDGSFFLYSKLTVDKSRWQQGNVFSCSVMHEALHNHYTQKSLSLSPGK
light: B1 light
notes: Human IgG1 L234A L235A YTE/kappa; also called V8-AFM-IgG1-LALA-YTE
B4: V5-AFM-hIgG4-S228P (antibody, V domains shown)
VH: EVQLVESGGGLVQPGGSLRLSCAASGFTFSSFALNWVRQAPGKGLEWVGHIRSKTNNYVTFYAASVKGRFTVSRDDSQNTAYLQMNSLKTEDTATYYCVRRGPRDSWFGYWGQGTLVTVSS
VL: DIVMTQSPLSLPVTLGEPASISCRSSQKIVHRNANTYLEWYLQKPGQSPQLLIYTVSNRFSGVPDRFSGSGSGTDFTLKISRVEAEDLGVYYCFQGSYLPLTFGGGTKVEIK
notes: also called V5-AFM-IgG4-S228P
B5: HmzTa1505-hIgG4-S228P (antibody)
heavy: not shown
light: B1 light with K28N, R32S, Y98H

One assay addresses T1, pT212/pS214GC (69AXY). Briefly: peptide-coated ELISA (1 µg/ml peptide 69AXY coat, anti-human IgG-HRP, ABTS, OD405). The protocol:
(§1) Binding specificity of the high affinity antibodies described herein was assessed with various tau peptides by a peptide-coated ELISA. Plates were coated with 50 μl of 1 μg/ml peptides 69AXY, 70AXY, 74AXY, 84AWK, 25AWF, or 24AWF in PBS for overnight at 4° C. On the next day, the plates were washed 3 times, blocked with 200 μl of superblock for 1 hr at room temperature, then washed 3 times again. Antibodies were diluted at 1:5 serial dilution in ELISA buffer starting from 10 μg/ml. The plates were incubated with 50 μl of serially diluted antibodies at room temperature for 1 hr and washed 3 times.
For the molecule B1, the binding result is “no binding (tested: 10 µg/ml)”.

For B2, the binding result is recorded as “no binding (tested: 10 µg/ml)”.

On to B3, for which the binding result is reported as “no binding (tested: 10 µg/ml)”.

As to B4, the binding result was “no binding (tested: 10 µg/ml)”.

The target in another assay is T4, tau species in brain homogenates from mutant tau mice (rTg(tauP301L)4510), sarkosyl insoluble tau seeds.
T4 construct: also called Tau mutant mice brain; SI Tau seeds
Briefly: competitive ELISA, tau mutant mice brain SI tau seeds (4 ng protein). On the procedure:
(§2) Binding affinities of various anti-tau-pS413 antibodies described herein for endogenous tau species were determined in brain homogenates and CSF samples from AD patients and preclinical models. Briefly, samples were pre-incubated with different concentrations of various anti-tau-pS413 antibodies, or respective isotype controls. Following a one-hour pre-incubation period, the antigen-antibody (Ag-Ab) mixture was added to plates pre-coated with a total tau capture antibody (Innotest ELISA kit).
Tissue homogenates were prepared using 1% sarkosyl buffer with several high-speed centrifugation steps to enrich for insoluble proteins including tau.
Consider B3, for which the EC50 was found to be 0.004 nM.

Consider B5, for which the EC50 was found to be 0.67 nM.

The target in another assay is T5, tau species in CSF of African Green Monkeys (African Green Monkey).
T5 construct: also called Fresh African Green Monkey (AGM) CSF
Briefly: competitive ELISA, fresh AGM CSF (75 µl of neat CSF). The protocol:
as §2
Molecule B3 gave a concentration for a half-maximal effect (EC50) of 0.008 nM.

The molecule B5 had an EC50 of 2.08 nM.

Another assay deals with T2, pS396/400/404GC (84AWK). Briefly: peptide-coated ELISA (1 µg/ml peptide 84AWK coat, anti-human IgG-HRP, ABTS, OD405). The protocol: as §1
As for B1, the binding result is listed as “no binding (tested: 10 µg/ml)”.

On to B2, for which the binding result is on record as “no binding (tested: 10 µg/ml)”.

For the molecule B3, the binding result is reported as “no binding (tested: 10 µg/ml)”.

Consider B4, for which the binding result is “no binding (tested: 10 µg/ml)”.

A further assay has as its target cynomolgus monkey (cyno) FcRn (cynomolgus monkey, UniProt Q8SPV9 24-297; Q8SPW0 21-119, limits assumed). Briefly: SPR (Biacore), antibody captured by anti-human kappa, FcRn injected, pH 6.0, steady-state fit; pH 6.0. On the procedure: (§3) Anti-human kappa antibody was amine coupled to a CMS chip. Each antibody was captured to 200-300 RUs. Binding assays were performed using PBS running buffer containing 0.05% Tween-20, adjusted to either pH 6.0 or 7.4. Titration samples were also prepared using the corresponding pH buffer for the assay. Titrating concentrations (1200 nM top, 6-point, 3-fold dilution series and two zeros) of human or cyno FcRn were injected over the captured mAbs. Each sample injection was followed by two 30-second injections of 10 mM glycine, pH 1.5 and a 12-second injection of 10 mM NaOH to regenerate the surface for subsequent antibody capture and injection. All assays were run on Biacore T200 and/or 4000 instruments (GE Healthcare) and the data were fit to a steady-state approximation model using Biaevaluation software. Affinity at pH 6.0 was calculated as equivalent to concentration at half maximal binding signal in the steady-state approximation (TABLE 9).
With B1, the “Cyno FcRn fold change (relative to HmzTa1505-hIgG4-S228P)” value came out at 1.6 fold and the Kd came out at 160 nM.

As for B2, the “Cyno FcRn fold change (relative to HmzTa1505-hIgG4-S228P)” value was 1 fold and the dissociation constant (Kd) amounted to 260 nM.

Consider B3, for which the “Cyno FcRn fold change (relative to HmzTa1505-hIgG4-S228P)” value worked out at 11 fold and the Kd turned out to be 24 nM.

Take B5: the “Cyno FcRn fold change (relative to HmzTa1505-hIgG4-S228P)” value is 1 fold and the Kd stood at 260 nM.

The next assay addresses human FcRn (human, UniProt P55899 24-297; P61769 21-119, limits assumed). The assay is described as above. The protocol:
as §3
B1: the “Human FcRn fold change (relative to HmzTa1505-hIgG4-S228P)” value came out at 1 fold and the dissociation constant Kd came to 230 nM.

In the case of B2, the “Human FcRn fold change (relative to HmzTa1505-hIgG4-S228P)” value worked out at 1 fold and the affinity, expressed as Kd, was 210 nM.

Regarding B3, the “Human FcRn fold change (relative to HmzTa1505-hIgG4-S228P)” value was determined as 6.5 fold and the dissociation constant Kd was found to be 34 nM.

Turning to B5, the “Human FcRn fold change (relative to HmzTa1505-hIgG4-S228P)” value amounted to 1 fold and the affinity, expressed as Kd, was 220 nM.

A further assay concerns the target T3, pSer412Cys (74AXY). Briefly: peptide-coated ELISA (1 µg/ml peptide 74AXY coat, anti-human IgG-HRP, ABTS, OD405). On the procedure:
as §1
For B1, the binding result was “no binding (tested: 10 µg/ml)”.

For B2, the binding result is on record as “no binding (tested: 10 µg/ml)”.

Consider B3, for which the binding result was “no binding (tested: 10 µg/ml)”.

With B4, the binding result is listed as “no binding (tested: 10 µg/ml)”.

Another assay concerns the target T6, phosphorylated tau protein monomer (35 AWM).
T6 construct: also called recombinant phosphorylated tau protein monomer
Put plainly: competitive ELISA, phosphorylated tau protein monomer 35 AWM (1 ng).
As for B3, it took 0.055 nM to reach a half-maximal effect (EC50).

Consider B5, for which the EC50 came to 6.73 nM.

For the origin of these results see patent US20210403541A1 (Merck Sharp & Dohme, published 2021).
